Results on four molecules are retold here after PMC5484413 (Nature structural & molecular biology, 2016).

T1: GST-NPP-14 (C. elegans, UniProt Q17602 1-1390)
T1 sequence (looked up): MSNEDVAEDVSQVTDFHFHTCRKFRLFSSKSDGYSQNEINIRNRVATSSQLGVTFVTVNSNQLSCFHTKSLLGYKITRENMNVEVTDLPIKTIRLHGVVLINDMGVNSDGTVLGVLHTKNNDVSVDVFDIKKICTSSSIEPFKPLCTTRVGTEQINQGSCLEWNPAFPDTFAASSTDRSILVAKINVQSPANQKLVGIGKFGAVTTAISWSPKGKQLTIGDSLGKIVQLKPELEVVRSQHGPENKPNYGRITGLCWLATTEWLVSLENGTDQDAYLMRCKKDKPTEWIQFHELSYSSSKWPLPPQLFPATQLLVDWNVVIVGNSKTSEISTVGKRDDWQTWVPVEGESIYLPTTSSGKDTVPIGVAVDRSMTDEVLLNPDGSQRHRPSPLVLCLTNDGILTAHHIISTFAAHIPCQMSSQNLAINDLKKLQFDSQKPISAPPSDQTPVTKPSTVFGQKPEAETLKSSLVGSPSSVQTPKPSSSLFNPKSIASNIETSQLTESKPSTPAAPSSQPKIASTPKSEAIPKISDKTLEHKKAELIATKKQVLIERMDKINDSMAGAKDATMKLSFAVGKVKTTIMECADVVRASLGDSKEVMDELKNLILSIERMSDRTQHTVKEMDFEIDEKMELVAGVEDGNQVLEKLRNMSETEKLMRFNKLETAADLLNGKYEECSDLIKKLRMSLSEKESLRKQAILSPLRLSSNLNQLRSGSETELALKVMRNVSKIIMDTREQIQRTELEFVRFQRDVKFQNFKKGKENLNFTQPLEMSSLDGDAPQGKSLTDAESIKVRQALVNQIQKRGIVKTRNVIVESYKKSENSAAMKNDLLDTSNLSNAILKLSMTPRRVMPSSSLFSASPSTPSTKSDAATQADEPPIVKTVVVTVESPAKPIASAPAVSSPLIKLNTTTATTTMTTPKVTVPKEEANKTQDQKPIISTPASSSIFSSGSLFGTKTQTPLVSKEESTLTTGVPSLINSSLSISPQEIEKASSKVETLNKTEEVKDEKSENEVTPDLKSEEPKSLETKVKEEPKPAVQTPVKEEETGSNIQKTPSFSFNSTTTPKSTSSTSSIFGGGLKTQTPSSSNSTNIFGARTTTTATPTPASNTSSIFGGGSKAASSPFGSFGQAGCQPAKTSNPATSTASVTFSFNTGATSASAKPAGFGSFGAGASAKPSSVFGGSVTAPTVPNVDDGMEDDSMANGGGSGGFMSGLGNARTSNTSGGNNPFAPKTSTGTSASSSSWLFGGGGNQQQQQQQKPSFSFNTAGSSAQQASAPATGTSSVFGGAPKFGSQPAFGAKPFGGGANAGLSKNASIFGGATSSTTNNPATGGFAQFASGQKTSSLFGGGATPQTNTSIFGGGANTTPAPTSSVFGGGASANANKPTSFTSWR

B1: CED-3(1-220)-His6 (wild-type) (domain or fragment, C. elegans, UniProt P42573 1-220, looked up)
chain: MMRQDRRSLLERNIMMFSSHLKVDEILEVLIAKQVLNSDNGDMINSCGTVREKRREIVKAVQRRGDVAFDAFYDALRSTGHEGLAEVLEPLARSVDSNAVEFECPMSPASHRRSRALSPAGYTSPTRVHRDSVSSVSSFTSYQDIYSRARSRSRSRALHSSDRHNYSSPPVNAFPSQPSSANSSFTGCSSLGYSSSRNRSFSKASGPTQYIFHEEDMNFV
B2: CED-3(1-220)-His6 L30F (domain or fragment, C. elegans, UniProt P42573 1-220, looked up)
chain: MMRQDRRSLLERNIMMFSSHLKVDEILEVFIAKQVLNSDNGDMINSCGTVREKRREIVKAVQRRGDVAFDAFYDALRSTGHEGLAEVLEPLARSVDSNAVEFECPMSPASHRRSRALSPAGYTSPTRVHRDSVSSVSSFTSYQDIYSRARSRSRSRALHSSDRHNYSSPPVNAFPSQPSSANSSFTGCSSLGYSSSRNRSFSKASGPTQYIFHEEDMNFV
B3: CED-3(1-220)-His6 L27F (domain or fragment, C. elegans, UniProt P42573 1-220, looked up)
chain: MMRQDRRSLLERNIMMFSSHLKVDEIFEVLIAKQVLNSDNGDMINSCGTVREKRREIVKAVQRRGDVAFDAFYDALRSTGHEGLAEVLEPLARSVDSNAVEFECPMSPASHRRSRALSPAGYTSPTRVHRDSVSSVSSFTSYQDIYSRARSRSRSRALHSSDRHNYSSPPVNAFPSQPSSANSSFTGCSSLGYSSSRNRSFSKASGPTQYIFHEEDMNFV
B4: CED-3(1-220)-His6 G65R (domain or fragment, C. elegans, UniProt P42573 1-220, looked up)
chain: MMRQDRRSLLERNIMMFSSHLKVDEILEVLIAKQVLNSDNGDMINSCGTVREKRREIVKAVQRRRDVAFDAFYDALRSTGHEGLAEVLEPLARSVDSNAVEFECPMSPASHRRSRALSPAGYTSPTRVHRDSVSSVSSFTSYQDIYSRARSRSRSRALHSSDRHNYSSPPVNAFPSQPSSANSSFTGCSSLGYSSSRNRSFSKASGPTQYIFHEEDMNFV

The target of this experiment is T1, GST-NPP-14. Kind of experiment: pull-down.
As to B1, the binding result was “binds”. As for B2, the binding result is “binds”. For B3, the binding result was “binds”. For B4, the binding result is reported as “binds”.
